Data taken from US20140271651A1 (AbbVie / Abbott, published 2014).

Molecular target: T1, GP73-hFc (human GP73 amino acids 63 to 400 fused at the C-terminus to human IgG1 Fc) (human)
T1 construct: Expressed in HEK293F, CHO or HepG2 cells; the host is named under assay; also called HEK expressed GP73-hFc; CHO expressed GP73-hFc
T1 chain: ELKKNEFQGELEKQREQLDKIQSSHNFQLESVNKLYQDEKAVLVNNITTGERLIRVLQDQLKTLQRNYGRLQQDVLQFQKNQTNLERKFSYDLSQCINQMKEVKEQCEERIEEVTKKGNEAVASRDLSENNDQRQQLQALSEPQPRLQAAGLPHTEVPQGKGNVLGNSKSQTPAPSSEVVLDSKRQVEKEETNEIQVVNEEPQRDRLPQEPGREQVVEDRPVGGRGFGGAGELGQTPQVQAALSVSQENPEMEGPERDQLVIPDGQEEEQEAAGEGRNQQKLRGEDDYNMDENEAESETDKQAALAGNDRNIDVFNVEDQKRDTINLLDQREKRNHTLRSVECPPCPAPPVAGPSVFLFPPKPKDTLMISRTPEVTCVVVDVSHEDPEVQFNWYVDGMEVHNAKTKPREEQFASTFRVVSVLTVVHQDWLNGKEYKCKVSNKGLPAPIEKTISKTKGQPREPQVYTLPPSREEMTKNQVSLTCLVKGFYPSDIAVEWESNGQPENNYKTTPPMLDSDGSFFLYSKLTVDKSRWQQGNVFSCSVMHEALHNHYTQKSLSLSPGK
Experiment: SPR Biacore 2000, mAb captured on rabbit anti-mouse IgG, HEK GP73-hFc analyte 0.412-100 nM, 1:1 fit; standard error 2 × 10^-5, larger than the value; dissociation hardly resolved
Description: First, an approximately 13,000-15,000 RU rabbit anti-mouse IgG Capture Biosensor was created by amine-coupling rabbit anti-mouse IgG antibody (GE Healthcare) to a CM5 biosensor chip (GE Healthcare) via EDC/NHS/ethanolamine chemistry provided in an Amine Coupling Kit (GE Healthcare) after pre-treating the biosensor with duplicate injections of 100 mM HCl, 50 mM NaOH, and 0.1% SDS. Purified GP73 antibody and antigen (HEK GP73-hFc) were diluted into a running buffer (hereinafter “running buffer”) composed of HBS-EP buffer (GE Healthcare) supplemented with 0.1% BSA and 0.1% CM-Dextran. Each GP73 antibody was diluted to 1 μg/mL. The GP73-hFc antigen was diluted to concentrations of 0.412 to 100 nM using a 3-fold dilution series assuming an oligomeric molecular weight of 490 kDa (Abbott Laboratories).
The GP73-hFc antigen program was as follows. After equilibrating the rabbit anti-mouse IgG Capture Biosensor for 3 min at 5 μL/minute with running buffer, GP73 antibody (7-14 μL) was injected over individual flow cells with one flow cell being left blank as a reference flow cell. […] The binding kinetics (association and dissociation) were monitored via sensorgrams during antigen injection and running buffer re-equilibration. […] Standard errors of determined values are reported in parentheses with respect to the smallest number place value.

B1: anti-GP73 monoclonal antibody 1B-4971 (antibody, V domains shown)
VH: QVQLQQSGPALVKPGASVKMSCKASGYTFTNYVIHWVKQKPGQGLERIGYIWPYNDGTKFNEKFKGKATLTSDKSSSTAYMELSSLTSEDSAVYYCSSQQLAYWGQGTTLTVSS
VL: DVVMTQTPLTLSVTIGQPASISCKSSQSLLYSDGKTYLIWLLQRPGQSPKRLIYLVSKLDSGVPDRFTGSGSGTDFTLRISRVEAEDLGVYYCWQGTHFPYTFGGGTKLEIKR
notes: Biotin labelled in some assays; also called mAb 1B-4971; 1B-4971-Bt
koff: ≤ 1e-05 s⁻¹
